{
  "source": "patent US20210285949A1",
  "about": "(SPHINGOTEC, published 2021)",
  "binders": {"B1": {"name": "mature human Adrenomedullin (Human ADM 1-52) (peptide)", "peptide": "YRQSMNNFQGLRSFGCRFGTCTVQKLAHQIYQFTDKDKDNVAPRSKISPQGY-NH2", "modifications": "ends and bridges not checked"}},
  "key": {"[1]": {"target": "T1, human recombinant adrenomedullin receptor (CRLR+RAMP3) (human)", "T1 sequence (Q16602 whole entry, chain 1 of 2)": "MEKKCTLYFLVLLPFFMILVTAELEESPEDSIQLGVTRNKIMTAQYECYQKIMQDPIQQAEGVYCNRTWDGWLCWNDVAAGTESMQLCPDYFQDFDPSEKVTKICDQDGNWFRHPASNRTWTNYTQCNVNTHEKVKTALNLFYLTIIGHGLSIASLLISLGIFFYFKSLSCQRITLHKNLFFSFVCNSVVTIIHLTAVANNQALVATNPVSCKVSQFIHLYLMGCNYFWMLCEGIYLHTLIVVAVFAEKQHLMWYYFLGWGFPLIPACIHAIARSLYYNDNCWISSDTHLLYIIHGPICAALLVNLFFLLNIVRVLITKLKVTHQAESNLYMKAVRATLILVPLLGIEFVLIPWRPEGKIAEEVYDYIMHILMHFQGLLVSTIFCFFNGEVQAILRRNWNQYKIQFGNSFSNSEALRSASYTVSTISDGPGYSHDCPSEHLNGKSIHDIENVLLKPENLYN", "T1 sequence (O60896 whole entry, chain 2 of 2, further chain)": "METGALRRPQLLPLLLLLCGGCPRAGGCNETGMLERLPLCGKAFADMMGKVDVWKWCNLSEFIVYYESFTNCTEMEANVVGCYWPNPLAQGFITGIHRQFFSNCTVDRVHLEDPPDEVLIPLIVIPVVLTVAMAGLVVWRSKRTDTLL", "experiment": "cell-based or functional assay"}, "[2]": {"target": "T1, human recombinant adrenomedullin …", "experiment": "cell-based or functional assay", "remark": "listed apart in the source"}},
  "note": "Where two headings read alike, the source gives them in different places. No end group written: not given here.",
  "data": [
    {"binder": "B1", "values": [
      {"measurement": "EC50 (read off the curve); cAMP HTRF assay, CHO-K1 cells with human CRLR+RAMP3", "setting": "[1]", "result": "~1", "unit": "nM"}
    ]},
    {"binder": "YRQSMNQGSRSNGCRFGTCTFQKLAHQIYQLTDKDKDGMAPRNKISPQGY-NH2 (ends and bridges not checked)", "note": "[Mouse ADM 1-50]", "values": [
      {"measurement": "EC50 (read off the curve); cAMP HTRF assay, CHO-K1 cells with human CRLR+RAMP3", "setting": "[2]", "result": "~0.08", "unit": "nM"}
    ]}
  ]
}
